Target: His-TF-LqqP (Lysobacter enzymogenes OH11)
Test: MST

PcoI-His (enzyme)
Kd: 0.646 µM
